According to publication PMC3818340:

Tests used:
[1] = substrate: CC#CC(=O)C(=O)O; assay: purified protein; format: biochemical, coryneform bacterium; details: 20 mM sodium phosphate buffer, pH 9.0, 24 °C
[2] = substrate: CC#CC(=O)C(=O)O; assay: purified protein; format: biochemical, Pseudomonas pavonaceae; details: 20 mM sodium phosphate buffer, pH 9.0, 24 °C

Protein | Km [1] | kcat [1] | kcat/Km [1] | Km [2] | kcat [2] | kcat/Km [2]
FG41 MSAD (coryneform bacterium) (protein) PLIRIDLTSDRSREQRRAIADAVHDALVEVLAIPARDRFQILTAHDPSDIIAEDAGLGFQRSPSVVIIHVFTQAGRTIETKQRVFAAITESLAPIGVAGSDVFIAITENAPHDWSFGFGSAQYVTGELAIPATGAA | 7.3 ± 0.8 mM | 0.17 ± 0.01 s⁻¹ | 20 M⁻¹ s⁻¹ | – | – | –
FG41 MSAD (coryneform bacterium; Y123F) (protein) PLIRIDLTSDRSREQRRAIADAVHDALVEVLAIPARDRFQILTAHDPSDIIAEDAGLGFQRSPSVVIIHVFTQAGRTIETKQRVFAAITESLAPIGVAGSDVFIAITENAPHDWSFGFGSAQFVTGELAIPATGAA | 21 ± 5 mM | 0.7 ± 0.1 s⁻¹ | 30 M⁻¹ s⁻¹ | – | – | –
FG41 MSAD (coryneform bacterium; Q73R) (protein) PLIRIDLTSDRSREQRRAIADAVHDALVEVLAIPARDRFQILTAHDPSDIIAEDAGLGFQRSPSVVIIHVFTRAGRTIETKQRVFAAITESLAPIGVAGSDVFIAITENAPHDWSFGFGSAQYVTGELAIPATGAA | 6.6 ± 1.5 mM | 1.2 ± 0.2 s⁻¹ | 180 M⁻¹ s⁻¹ | – | – | –
Pp MSAD (Pseudomonas pavonaceae) (protein) PLLKFDIFYGRTDAQIKSLLDAAHGAMVDAFGVPANDRYQTVSQHRPGEMVLEDTGLGYGRSSAVVLLTVISRPRSEEQKVCFYKLLTGALERDCGISPDDVIVALVENSDADWSFGRGRAEFLTGDLV | – | – | – | 3 ± 1.2 mM | 3.4 ± 0.8 s⁻¹ | 1130 M⁻¹ s⁻¹
